Measurements taken from US7504561B2, “GDC-1 genes conferring herbicide resistance” (Athenix Corporation, priority 2003, dated 2009).

Assay: Standard pyruvate decarboxylase assay (coupled reaction with alcohol dehydrogenase, absorbance at 340 nm)
Type: biochemical
Settings: 100 ng of GDC-1 protein
Experimental: 100 ng of GDC-1 protein was tested for activity in a standard pyruvate decarboxylase assay (Gounaris et al. (1971) J. of Biol. Chem. 246:1302-1309). This assay is a coupled reaction, wherein the first step the pyruvate decarboxylase (PDC) converts pyruvate to acetaldehyde and CO2. The acetaldehyde produced in this reaction is a substrate for alcohol dehydrogenase, which converts acetaldehyde and β-NADH to ethanol and β-NAD. Thus, PDC activity is detected by virtue of utilization of β-NADH as decrease in absorbance at 340 nm in a spectrophotometer. GDC-1 as well as a control enzyme (pyruvate decarboxylase, Sigma) were tested in this assay.

B1: GDC-1: glyphosate resistance-conferring decarboxylase from fungal strain ATX6394, SEQ ID NO:19; purified as 6×His-tagged protein (protein)
chain: MASINIRVQNLEQPMDVAEYLFRRLHEIGIRSIHGLPGDYNPLALDYLPSCGLRWVGSVNELNAAYAADGYARVKQMGALITTFGVGELSAINGVAGAFSEHVPVVHIVGCPSTASQRNGMLLHHTLGNGDFNIFANMSAQISCEVAKLTNPAEIATQIDHALRVCFIRSRPVYIMLPTDMVQAKVEGARLKEPIDLSEPPNDPEKEAYVVDVVLKYLRAAKNPVILVDACAIRHRVLDEVHDLIEKTNLPVFVTPMGKGAVNEEHPTYGGVYAGDGSHPPQVKDMVESSDLILTIGALKSDFNTAGFSYRTSQLNTIDLHSDHCIVKYSTYPGVQMRGVLRQVIKQLDASEINAQPAPVVENEVAKNRDNSPVITQAFFWPRVGEFLKKNDIVITETGTANFGIWDTKFPSGVTALSQVLWGSIGWSVGACQGAVLAAADDNSDRRTILFVGDGSFQLTAQELSTMIRLKLKPIIFVICNDGFTIERFIHGMEAEYNDIANWDFKALVDVFGGSKTAKKFAVKTKDELDSLLTDPTFNAAECLQFVELYMPKEDAPRALIMTAEASARNNAKTE
modifications: 6xHis tag; Fungal isolate from soil sample
notes: purified as 6×His-tagged protein
Pyruvate decarboxylase activity: showed activity as a pyruvate decarboxylase
